Measurements published in patent US20240108738A1, “BICYCLIC PEPTIDE LIGANDS SPECIFIC FOR NK CELLS” (Bicycle Tx Limited, priority 2021, published 2024).
Numbered stars: 1 amine (or outer) side, 2 acyl side, 3 side chain; on linkers, the order of the positions; unused ones are H or OH. Bridge positions count the residues as written; N and C are the ends. Ends that are not written are not given here. * marks the point of attachment. TBMT = 2,4,6-tris(bromomethyl)-s-triazine, C(c1nc(C[*:2])nc(C[*:3])n1)[*:1]; Pent4ynoyl = C#CCCC(=O)*

target: biotinylated human FcγRIII (CD16a), variant not stated (human) (UniProt P08637); assay: SPR Method A
Sequence (P08637 17-208, change not shown): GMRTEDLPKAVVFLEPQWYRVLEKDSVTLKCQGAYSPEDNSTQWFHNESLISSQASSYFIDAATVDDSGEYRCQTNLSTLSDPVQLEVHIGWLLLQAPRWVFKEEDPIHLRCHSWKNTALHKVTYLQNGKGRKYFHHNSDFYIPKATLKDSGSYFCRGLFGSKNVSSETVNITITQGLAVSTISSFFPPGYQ

Row | Kd [nM] | Binder
1 | 1800 | ACRWSVEDPCGAWCAK(Pent4ynoyl)-NH2 (linker 2-10-14 via TBMT (inferred)) [BCY13883]
2 | 2200 | ACVGLEELGPCSDLCAK(Pent4ynoyl)-NH2 (linker 2-11-15 via TBMT (inferred)) [BCY13886]

target: Human NKp46 Fc tag (Acro Biosystems, NC1-H5257) (human), O76036; assay: SPR Method 1 and/or 2
Sequence (O76036 22-255 limits assumed): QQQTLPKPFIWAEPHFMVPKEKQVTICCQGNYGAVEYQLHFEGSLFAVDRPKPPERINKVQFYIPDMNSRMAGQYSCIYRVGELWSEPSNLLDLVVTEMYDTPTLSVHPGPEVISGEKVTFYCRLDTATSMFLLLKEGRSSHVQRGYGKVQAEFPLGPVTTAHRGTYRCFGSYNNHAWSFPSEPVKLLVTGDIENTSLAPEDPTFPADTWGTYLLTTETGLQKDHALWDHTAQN

Row | Kd [nM] | Binder
3 | 1520 | ACDLQTHNCQWGICA (modifications not checked) [BCY18277]
4 | 5380 | ACNLQAPCMLAGKVCA (modifications not checked) [BCY18302]
5 | 2750 | ACNLQAPCMHTGKVCA (modifications not checked) [BCY19711]
6 | 2680 | ACNLQAPCMVTGKVCA (modifications not checked) [BCY19702]
7 | 6410 | CNLQAPCMLTGKVC (modifications not checked) [BCY18295]
8 | 2510 | CNLQAPCMLTGKVCA (modifications not checked) [BCY19694]
9 | 1510 | ACNLQAPCMETGKVCA (modifications not checked) [BCY18316]
10 | 3190 | ACDLTTHNCQWGACA (modifications not checked) [BCY18272]
11 | 1800 | ACNLQAACMLTGKVCA (modifications not checked) [BCY18299]
12 | 4030 | ACNLQAPCMATGKVCA (modifications not checked) [BCY18301]
13 | 1530 | ACNLQAPCMLTGAVCA (modifications not checked) [BCY18304]
14 | 1110 | CDLTTHNCQWGICA (modifications not checked) [BCY19718]
15 | 2380 | KCNLQAPCMLTGKVCA (modifications not checked) [BCY19695]
16 | 3760 | ACDLTTHNCVWGICA (modifications not checked) [BCY18285]
17 | 1830 | ACNLQQACMQTGKVCA (modifications not checked) [BCY19713]
18 | 3140 | ACNLQAPCLHTGKVCA (modifications not checked) [BCY19712]
19 | 1920 | ACNLQAPCMYTGKVCA (modifications not checked) [BCY18318]

The remaining lines, values behind:

Row | Binder | Kd [nM]
20 | ACLLHDHCPNTHPKMCA (modifications not checked) [BCY14457] | 2270
21 | ACLLHEHCPNTHPKMCA (modifications not checked) [BCY15104] | 2880
22 | ACDLATHNCQWGICA (modifications not checked) [BCY18265] | 1480
23 | ACDLTTHNCIWGVCA (modifications not checked) [BCY14458] | 1260
24 | ACLLHDHCPNSHPEICA (modifications not checked) [BCY15105] | 3730
25 | ACNLQNPCMKFPCA (modifications not checked) [BCY15102] | 1090
26 | ACDLTTHNCAWGICA (modifications not checked) [BCY18269] | 1640
27 | ACLLHDHCPNTHPIICA (modifications not checked) [BCY15106] | 2670
28 | ACLLHDHCPNTHPKLCA (modifications not checked) [BCY15103] | 1660
29 | ACNLQQACLHTGKVCA (modifications not checked) [BCY14454] | 2760
